Reference: publication PMC11229326, “Structural characterization of two prototypical repressors of SorC family reveals tetrameric assemblies on DNA and mechanism of function” (Nucleic Acids Research, 2024)

Legend:
[1] = target: the molecule itself; test: cryo-EM 2D classification; purified CggR-OLR complex (0.86 mg/ml) with 2 mM FBP, about 15 min on ice
[2] = target: the molecule itself; test: cryo-EM structure; CggR with the 45 bp operator DNA OLR (molar ratio 4:1.5), SEC-purified complex, 0.86 mg/ml; C2 symmetry, 4.3 Å
DeoR [3] = target: T1, DeoR (Bacillus subtilis, UniProt P39140 2-313); test: SEC; about 56 uM DeoR, protein:DNA 2:1; MST: 50 mM Tris-HCl pH 7.5, 150 mM NaCl, 50 mM MgCl2, 2 mM EDTA, 0.02% beta-mercaptoethanol; DeoR SEC mixes incubated 30 min on ice; CggR storage 20 mM Tris-HCl pH 7.5, 100 mM NaCl, 0.02% beta-mercaptoethanol, complex formed 30 min on ice; settings: protein: recombinant; tags: N-terminal GIDPFT cloning artifact after TEV cleavage (His6-V5 removed); chain copies: 4; blunt
T1 sequence: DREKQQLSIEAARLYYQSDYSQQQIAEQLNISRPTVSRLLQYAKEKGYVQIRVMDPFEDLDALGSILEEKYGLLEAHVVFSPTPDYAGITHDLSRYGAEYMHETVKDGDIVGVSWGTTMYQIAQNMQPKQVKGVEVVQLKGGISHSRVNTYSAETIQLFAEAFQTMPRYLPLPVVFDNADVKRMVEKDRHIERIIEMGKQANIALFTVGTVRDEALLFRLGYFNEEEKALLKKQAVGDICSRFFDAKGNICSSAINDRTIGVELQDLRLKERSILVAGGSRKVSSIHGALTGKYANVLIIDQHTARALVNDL

DeoR [4] = target: T1, DeoR; test: SEC; about 56 uM DeoR, protein:DNA 4:1; MST: 50 mM Tris-HCl pH 7.5, 150 mM NaCl, 50 mM MgCl2, 2 mM EDTA, 0.02% beta-mercaptoethanol; DeoR SEC mixes incubated 30 min on ice; CggR storage 20 mM Tris-HCl pH 7.5, 100 mM NaCl, 0.02% beta-mercaptoethanol, complex formed 30 min on ice; settings: protein: recombinant; tags: N-terminal GIDPFT cloning artifact after TEV cleavage (His6-V5 removed); chain copies: 4; blunt
DeoR [5] = target: T1, DeoR; test: X-ray crystallography; 3.7 A; protein about 8 mg/ml; 75 mM CaCl2, 25 mM MgCl2; MST: 50 mM Tris-HCl pH 7.5, 150 mM NaCl, 50 mM MgCl2, 2 mM EDTA, 0.02% beta-mercaptoethanol; DeoR SEC mixes incubated 30 min on ice; CggR storage 20 mM Tris-HCl pH 7.5, 100 mM NaCl, 0.02% beta-mercaptoethanol, complex formed 30 min on ice; settings: protein: recombinant; tags: N-terminal GIDPFT cloning artifact after TEV cleavage (His6-V5 removed); chain copies: 4; blunt
CggR = CggR (Bacillus subtilis, UniProt O32253 1-340); test: cryo-EM; 4.3 A; tetramer, no effector; MST: 50 mM Tris-HCl pH 7.5, 150 mM NaCl, 50 mM MgCl2, 2 mM EDTA, 0.02% beta-mercaptoethanol; DeoR SEC mixes incubated 30 min on ice; CggR storage 20 mM Tris-HCl pH 7.5, 100 mM NaCl, 0.02% beta-mercaptoethanol, complex formed 30 min on ice; settings: protein: recombinant; tags: N-terminal GIDPFT cloning artifact after TEV cleavage (His6-V5 removed); chain copies: 4; blunt
[6] = target: the molecule itself; test: crystal structure; DeoR co-crystallised with the 18 bp DNA duplex OL18 (left half-operator); hanging drop, 18°C; two dimers in the asymmetric unit, tetramer formed with a symmetry-related dimer; 3.7 Å
DeoR [7] = target: T1, DeoR; test: MST; DeoR 4 uM; 50 mM MgCl2; Hill coefficient slightly below 1; MST: 50 mM Tris-HCl pH 7.5, 150 mM NaCl, 50 mM MgCl2, 2 mM EDTA, 0.02% beta-mercaptoethanol; DeoR SEC mixes incubated 30 min on ice; CggR storage 20 mM Tris-HCl pH 7.5, 100 mM NaCl, 0.02% beta-mercaptoethanol, complex formed 30 min on ice; settings: protein: recombinant; tags: N-terminal GIDPFT cloning artifact after TEV cleavage (His6-V5 removed); chain copies: 4; blunt

B1: CggR from Bacillus subtilis (central glycolytic genes regulator, SorC/CggR subfamily repressor) (natural protein)
chain: GIDPFTMNQLIQAQKKLLPDLLLVMQKRFEILQYIRLTEPIGRRSLSASLGISERVLRGEVQFLKEQNLVDIKTNGMTLTEEGYELLSVLEDTMKDVLGLTLLEKTLKERLNLKDAIIVSGDSDQSPWVKKEMGRAAVACMKKRFSGKNIVAVTGGTTIEAVAEMMTPDSKNRELLFVPARGGLGEDVKNQANTICAHMAEKASGTYRLLFVPGQLSQGAYSSIIEEPSVKEVLNTIKSASMLVHGIGEAKTMAQRRNTPLEDLKKIDDNDAVTEAFGYYFNADGEVVHKVHSVGMQLDDIDAIPDIIAVAGGSSKAEAIEAYFKKPRNTVLVTDEGAAKKLLRDE
notes: cloning artifact that remains at the N-terminus after TEV PR cleavage; DBD and EBD connected by residues 92-94; also called apo-CggR; source: E. coli BL21 (DE3), purified (Ni-NTA, hydroxyapatite, TEV PR cleavage, reverse Ni-NTA, Mono-Q ion exchange); not shown: His6, N-terminal, cleaved
[1]
  stoichiometry N: 2
[2]
  stoichiometry N: 4

B2: OR24 (dsDNA)
DNA 1: TACCAATTTACATATGTTCAAAAG
DNA 2: CTTTTGAACATATGTAAATTGGTA
DeoR [3]
  binding result: no binding

B3: OL44 (dsDNA)
DNA 1: CACGTTCAAACCTTTCATTGAACAAAATTTCAATTACCAATTTACA
DNA 2: TGTAAATTGGTAATTGAAATTTTGTTCAATGAAAGGTTTGAACGTG
DeoR [4]
  binding result: no binding

B4: OL18 (dsDNA)
DNA 1: ATTGAACAAAATTTCAAT
DNA 2: ATTGAAATTTTGTTCAAT
DeoR [5]
  binding result: binds

B5: CggR OLR (45 bp) (dsDNA)
DNA 1: TGACGGGACGTTTTTTGTCATAGCGGGACATATAATGTCCAGCAA
DNA 2: TTGCTGGACATTATATGTCCCGCTATGACAAAAAACGTCCCGTCA
CggR
  binding result: binds

B6: OLR39 (dsDNA)
DNA 1: ATTGAACAAAATTTCAATTACCAATTTACATATGTTCAA
DNA 2: TTGAACATATGTAAATTGGTAATTGAAATTTTGTTCAAT
DeoR [4]
  binding result: binds

B7: DeoR from Bacillus subtilis (deoxyribonucleoside regulator, SorC/DeoR subfamily repressor) (natural protein)
chain: GIDPFTDREKQQLSIEAARLYYQSDYSQQQIAEQLNISRPTVSRLLQYAKEKGYVQIRVMDPFEDLDALGSILEEKYGLLEAHVVFSPTPDYAGITHDLSRYGAEYMHETVKDGDIVGVSWGTTMYQIAQNMQPKQVKGVEVVQLKGGISHSRVNTYSAETIQLFAEAFQTMPRYLPLPVVFDNADVKRMVEKDRHIERIIEMGKQANIALFTVGTVRDEALLFRLGYFNEEEKALLKKQAVGDICSRFFDAKGNICSSAINDRTIGVELQDLRLKERSILVAGGSRKVSSIHGALTGKYANVLIIDQHTARALVNDL
notes: cloning artifact that remains at the N-terminus after TEV PR cleavage; DBD residues 1-55, EBD residues 56-313; in the crystal model residue T1 is the last residue of the cloning artifact; also called apo-DeoR; source: E. coli BL21 (DE3), purified (Ni-NTA, TEV PR cleavage, reverse Ni-NTA); LB broth for structural studies, minimal medium for mass photometry and SEC; not shown: His6, N-terminal, …
[6]
  stoichiometry N: 4

B8: OLR65 (dsDNA)
DNA 1: GTGACACGTTCAAACCTTTCATTGAACAAAATTTCAATTACCAATTTACATATGTTCAAAAGTCG
DNA 2: CGACTTTTGAACATATGTAAATTGGTAATTGAAATTTTGTTCAATGAAAGGTTTGAACGTGTCAC
DeoR [7]
  Kd: ~30 µM
